From patent publication US9701713B2, “Compositions and methods for introduction of macromolecules into cells” (The Regents of the University of Colorado, a body corporate, priority 2011, dated 2017)

B1: TAT-αB crystallin: αB crystallin fused to the TAT cell-penetrating peptide (GRKKRRQRRRPQ) of human immunodeficiency virus (protein)
chain: GRKKRRQRRRPQDIAIHHPWIRRPFFPFHSPSRLFDQFFGEHLLESDLFPTSTSLSPFYLRPPSFLRAPSWFDTGLSEMRLEKDRFSVNLDVKHFSPEELKVKVLGDVIEVHGKHEERQDEHGFISREFHRKYRIPADVDPLTITSSLSSDGVLTVNGPRKQVSGPERTIPITREEKPAVTAAPKK
B2: αB crystallin: recombinant human αB-crystallin (HSPB5) without transduction peptide, used as comparator (protein)
chain: MDIAIHHPWIRRPFFPFHSPSRLFDQFFGEHLLESDLFPTSTSLSPFYLRPPSFLRAPSWFDTGLSEMRLEKDRFSVNLDVKHFSPEELKVKVLGDVIEVHGKHEERQDEHGFISREFHRKYRIPADVDPLTITSSLSSDGVLTVNGPRKQVSGPERTIPITREEKPAVTAAPKK

Experiments:
P23H rhodopsin = molecular target: T1, P23H rhodopsin (Homo sapiens, UniProt P08100, P23H); experiment: Cell model of aggregation-prone P23H rhodopsin; assay type: cell-based; conditions: aggregation-prone mutant P23H rhodopsin
T1 construct: expressed in transfected cells
Description: As shown, α crystallin prevents aggregation of the aggregation-prone mutant of rhodpsin, P23H rhodopsin.
This mutation is the cause of the major form of retinitis pigmentosa in humans.

lysozyme = experiment: Chaperone-like activity: suppression of chemically-induced lysozyme aggregation; assay type: biochemical; conditions: lysozyme with dithiothreitol at 37° C.
Description: The “Relative Absorbance (360 nm)” of lysozyme increases over time under assay conditions. The absorbance increase is an index of protein aggregation. A reduction in the slope of absorbance increase corresponds to inhibition of lysozyme aggregation.
Recombinant human αA- and αB-crystallins were modified by addition of putative transduction sequences at their N- or C-termini. These proteins were expressed in E. coli and isolated to apparent homogeneity using previously published methods (Cobb et al. 2000). Purified proteins were analyzed by size exclusion chromatography to determine size heterogeneity. CLA was assessed by measuring the ability of candidate proteins to suppress chemically-induced aggregation of substrate protein lysozyme in the presence of dithiothreitol at 37° C.

[1] = tested on: human lens epithelial cells (HLE B3); experiment: Uptake of Alexa Fluor 488 labeled crystallins into human lens epithelial cells; assay type: cell-based; conditions: Alexa Fluor 488 label, equal amounts of protein
Protocol: Since in vitro properties of alpha crystallin were unaffected by the addition of the NTD peptide, the ability of the NTD tag to enhance uptake of client proteins into living cells was investigated. To monitor cell uptake, wild type and NTD tagged crystallins were labeled with Alexa Fluor 488, a small reporter molecule. Equal amounts of protein were added to separate tissue culture plates containing human lens epithelial cells (HLE B3) and analyzed for their uptake into cells. At various times after addition of the protein to the cell media, cells were fixed and analyzed by fluorescent microscopy for cellular uptake of the labeled proteins. […] (See FIG. 1 and FIG. 6).
Further, αA- and αB-crystallins with and without the NTD tag were fluorescently-labeled using the fluorescent reporter molecule Alexa Fluor 488, and were incubated with human lens epithelial cells (HLE B3) and human embryonic kidney cells (HEK293). Time-dependent uptake was measured by fluorescent microscopy. At various times after addition of the protein to the cell media, cells were fixed and analyzed by fluorescent microscopy for cellular uptake of the labeled proteins.

human lens cells = experiment: Cell penetration and retention of AlexaFluor labeled crystallin in human lens cells over 3 days; assay type: cell-based; conditions: 60 minutes exposure
Protocol: αB crystallin, with or without fusion to the NTD peptide, was labeled with the small molecular weight fluorescent molecule AlexaFluor. It was then combined with tissue culture nutrient media and applied to a culture plate containing human lens cells. After 60 minutes, the culture media were removed, and replaced with culture media without crystallins. Entry and distribution of crystallins was measured over 3 days by observing fluorescence (green). Cell nuclei were stained with Hoechst dye (blue).

| Molecule | fluorescence of P23H rhodopsin (prevention of aggregation) (P23H rhodopsin) | chaperone-like activity (suppression of lysozyme aggregation, absorbance 360 nm) (lysozyme) | intracellular fluorescence (cellular uptake) [1] | intracellular crystallin fluorescence (human lens cells; after 48 hours) | intracellular crystallin fluorescence (human lens cells; after 72 hours) |
| --- | --- | --- | --- | --- | --- |
| alpha crystallin: alpha crystallin with chaperone-like activity applied to cells; b52 and b54 name it αA crystallin | prevented the loss of fluorescence | – | – | – | – |
| B1 | – | does not suppress lysozyme aggregation | – | – | – |
| B2 | – | effectively suppress lysozyme aggregation | comparatively little intracellular fluorescence | substantially lost | virtually undetectable |
